In article PMC10572819:

What was measured:
[1] = Western blot, HEK-293 with BAP31 siRNA; settings: glycan lost; control: WT-EpCAM
[2] = Western blot, HEK-293 co-transfected with BAP31; settings: glycan lost; control: WT-EpCAM

B1: epithelial cell-adhesion molecule (EpCAM): N76/111/198A (protein)
parent chain: MAPPQVLAFGLLLAAATATFAAAQEECVCENYKLAVNCFVNNNRQCQCTSVGAQNTVICSKLAAKCLVMKAEMNGSKLGRRAKPEGALQNNDGLYDPDCDESGLFKAKQCNGTSMCWCVNTAGVRRTDKDTEITCSERVRTYWIIIELKHKAREKPYDSKSLRTALQKEITTRYQLDPKFITSILYENNVITIDLVQNSSQKTQNDVDIADVAYYFEKDVKGESLFHSKKMDLTVNGEQLDLDPGQTLIYYVDEKAPEFSMQGLKAGVIAVIVVVVIAVVAGIVVLVISRKKRMAKYEKAEIKEMGEMHRELNA
Question: What does the source list for B1?
Answer: other: fall in protein level on BAP31 knockdown [1]: abolishes; other: rise in protein level on BAP31 overexpression [2]: abolishes
